Here are results for one molecule from PMC2975540 (Science (New York, N.Y.), 2009).

Where a chain is given by its changes, count along the chain named.

For test [1], the target named is T1, Methanocaldococcus jannaschii Nop5 (Methanocaldococcus jannaschii, UniProt Q58105 1-414).
T1 sequence (looked up): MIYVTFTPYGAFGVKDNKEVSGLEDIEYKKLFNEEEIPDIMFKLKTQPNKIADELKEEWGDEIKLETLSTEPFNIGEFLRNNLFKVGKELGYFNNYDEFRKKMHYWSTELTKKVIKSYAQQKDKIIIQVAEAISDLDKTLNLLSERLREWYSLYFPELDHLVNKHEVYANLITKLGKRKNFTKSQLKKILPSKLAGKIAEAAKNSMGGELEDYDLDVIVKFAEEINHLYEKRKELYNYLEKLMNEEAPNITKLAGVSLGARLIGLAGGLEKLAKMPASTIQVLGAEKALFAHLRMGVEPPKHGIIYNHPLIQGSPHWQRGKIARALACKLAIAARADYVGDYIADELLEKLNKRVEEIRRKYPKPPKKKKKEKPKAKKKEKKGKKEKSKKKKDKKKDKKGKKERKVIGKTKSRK
As to the kind of experiment: quantitative amino acid analysis.

The target of the next test is T2, Nop5mut2 (L143K, V217E) (Methanocaldococcus jannaschii, UniProt Q58105 1-414, L143K | V217E).
T2 sequence (looked up): T1 sequence (looked up) with L143K, V217E
As to the kind of experiment: co-sedimentation.

In test [2] the target is T3, Nop5mut4 (D135A, L143K, V217E, E224A) (Methanocaldococcus jannaschii, UniProt Q58105 1-414, D135A | L143K | V217E | E224A).
T3 sequence (looked up): T1 sequence (looked up) with D135A, L143K, V217E, E224A
The test can be described thus: co-sedimentation.

B1: Methanocaldococcus jannaschii fibrillarin (enzyme, UniProt Q58108 1-230, looked up)
chain: MEDIKIKEIFENIYEVDLGDGLKRIATKSIVKGKKVYDEKIIKIGDEEYRIWNPNKSKLAAAIIKGLKVMPIKRDSKILYLGASAGTTPSHVADIADKGIVYAIEYAPRIMRELLDACAERENIIPILGDANKPQEYANIVEKVDVIYEDVAQPNQAEILIKNAKWFLKKGGYGMIAIKARSIDVTKDPKEIFKEQKEILEAGGFKIVDEVDIEPFEKDHVMFVGIWEGK
Consider B1, for which the “stoichiometry N” value in test [1] stood at 1. Also, the binding result is given as “binds” in the test with Nop5mut2 (L143K, V217E) and “binds” in test [2].
